Patent publication US20170342168A1 (Hoffmann-La Roche, published 2017)

Molecular target: T1, human neonatal Fc-receptor (FcRn) (human, UniProt P55899 24-297; P61769 21-119, limits assumed)
T1 construct: also called the receptor
Test: FcRn affinity chromatography

T1 sequence (P55899 24-297 limits assumed, chain 1 of 2): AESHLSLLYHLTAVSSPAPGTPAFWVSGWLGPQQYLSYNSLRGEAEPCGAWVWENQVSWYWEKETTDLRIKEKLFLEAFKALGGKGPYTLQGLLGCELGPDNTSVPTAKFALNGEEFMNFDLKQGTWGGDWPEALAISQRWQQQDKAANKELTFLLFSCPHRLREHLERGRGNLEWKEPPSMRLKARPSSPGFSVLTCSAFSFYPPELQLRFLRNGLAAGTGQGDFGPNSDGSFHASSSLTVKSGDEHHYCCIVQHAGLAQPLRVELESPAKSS
T1 sequence (P61769 21-119 limits assumed, chain 2 of 2): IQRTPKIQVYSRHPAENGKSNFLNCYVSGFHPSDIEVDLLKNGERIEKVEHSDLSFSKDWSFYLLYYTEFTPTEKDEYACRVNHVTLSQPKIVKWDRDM

Molecule	retention time	binding result
anti-HER2 antibody with symmetric mutation N434H	52 min	
anti-HER2 antibody with symmetric mutation T256H	46 min	
anti-HER2 antibody with symmetric mutation K317H	46.3 min	
anti-HER2 antibody with symmetric mutation L309H	45.5 min	
anti-HER2 antibody with symmetric mutation R255D	41.4 min	
anti-HER2 antibody, wild-type	46.3 min	
anti-HER2 antibody with symmetric mutation D98E	46.2 min	
anti-HER2 antibody with symmetric mutation E430H	46.4 min	
anti-HER2 antibody with symmetric mutation Q311H	46.3 min	
anti-HER2 antibody with symmetric mutation K288E	45.2 min	
anti-HER2 antibody with symmetric mutation E258H	45.6 min	
anti-HER2 antibody with symmetric mutation K290H	46.2 min	
IgG1 Fc-region with L234A/L235A/P329G and H310A/H433A/Y436A (other, Symmetric mutations in both Fc chains; also called HHY-AAA) DKTHTCPPCPAPEAAGGPSVFLFPPKPKDTLMISRTPEVTCVVVDVSHEDPEVKFNWYVDGVEVHNAKTKPREEQYNSTYRVVSVLTVLAQDWLNGKEYKCKVSNKALGAPIEKTISKAKGQPREPQVYTLPPSRDELTKNQVSLTCLVKGFYPSDIAVEWESNGQPENNYKTTPPVLDSDGSFFLYSKLTVDKSRWQQGNVFSCSVMHEALANHATQKSLSLSPGK		no binding (tested: retention time below 3 minutes)
IgG1 Fc-region with L234A/L235A/P329G and H310A/H435A (other, Symmetric mutations in both Fc chains) DKTHTCPPCPAPEAAGGPSVFLFPPKPKDTLMISRTPEVTCVVVDVSHEDPEVKFNWYVDGVEVHNAKTKPREEQYNSTYRVVSVLTVLAQDWLNGKEYKCKVSNKALGAPIEKTISKAKGQPREPQVYTLPPSRDELTKNQVSLTCLVKGFYPSDIAVEWESNGQPENNYKTTPPVLDSDGSFFLYSKLTVDKSRWQQGNVFSCSVMHEALHNAYTQKSLSLSPGK		no binding (tested: retention time below 3 minutes)
IgG1 Fc-region with L234A/L235A/P329G and I253A/H310A (other, Symmetric mutations in both Fc chains) DKTHTCPPCPAPEAAGGPSVFLFPPKPKDTLMASRTPEVTCVVVDVSHEDPEVKFNWYVDGVEVHNAKTKPREEQYNSTYRVVSVLTVLAQDWLNGKEYKCKVSNKALGAPIEKTISKAKGQPREPQVYTLPPSRDELTKNQVSLTCLVKGFYPSDIAVEWESNGQPENNYKTTPPVLDSDGSFFLYSKLTVDKSRWQQGNVFSCSVMHEALHNHYTQKSLSLSPGK		no binding (tested: retention time below 3 minutes)
IgG1 Fc-region with L234A/L235A/P329G and I253A/H435A (other, Symmetric mutations in both Fc chains) DKTHTCPPCPAPEAAGGPSVFLFPPKPKDTLMASRTPEVTCVVVDVSHEDPEVKFNWYVDGVEVHNAKTKPREEQYNSTYRVVSVLTVLHQDWLNGKEYKCKVSNKALGAPIEKTISKAKGQPREPQVYTLPPSRDELTKNQVSLTCLVKGFYPSDIAVEWESNGQPENNYKTTPPVLDSDGSFFLYSKLTVDKSRWQQGNVFSCSVMHEALHNAYTQKSLSLSPGK		no binding (tested: retention time below 3 minutes)
IgG1 Fc-region with L234A/L235A/P329G and I253A/H310A/H435A (other, Symmetric mutations in both Fc chains; also called IHH-AAA) DKTHTCPPCPAPEAAGGPSVFLFPPKPKDTLMASRTPEVTCVVVDVSHEDPEVKFNWYVDGVEVHNAKTKPREEQYNSTYRVVSVLTVLAQDWLNGKEYKCKVSNKALGAPIEKTISKAKGQPREPQVYTLPPSRDELTKNQVSLTCLVKGFYPSDIAVEWESNGQPENNYKTTPPVLDSDGSFFLYSKLTVDKSRWQQGNVFSCSVMHEALHNAYTQKSLSLSPGK		no binding (tested: retention time below 3 minutes)
IgG1 Fc-region with L234A/L235A/P329G and H310A/Y436A (other, Symmetric mutations in both Fc chains) DKTHTCPPCPAPEAAGGPSVFLFPPKPKDTLMISRTPEVTCVVVDVSHEDPEVKFNWYVDGVEVHNAKTKPREEQYNSTYRVVSVLTVLAQDWLNGKEYKCKVSNKALGAPIEKTISKAKGQPREPQVYTLPPSRDELTKNQVSLTCLVKGFYPSDIAVEWESNGQPENNYKTTPPVLDSDGSFFLYSKLTVDKSRWQQGNVFSCSVMHEALHNHATQKSLSLSPGK		no binding (tested: retention time below 3 minutes)
